Source: publication PMC3075617 (Cell, 2011)
Several values for one entry are separate records, joined by “and”; a condition that tells them apart may be missing. Equal values may be shown once. Each block holds one molecule with its values, some of them ahead of it.

B2: DegP^S210A active-site mutant (enzyme, Escherichia coli, UniProt P0C0V0 27-474, looked up)
chain: AETSSATTAQQMPSLAPMLEKVMPSVVSINVEGSTTVNTPRMPRNFQQFFGDDSPFCQEGSPFQSSPFCQGGQGGNGGGQQQKFMALGSGVIIDADKGYVVTNNHVVDNATVIKVQLSDGRKFDAKMVGKDPRSDIALIQIQNPKNLTAIKMADSDALRVGDYTVAIGNPFGLGETVTSGIVSALGRSGLNAENYENFIQTDAAINRGNAGGALVNLNGELIGINTAILAPDGGNIGIGFAIPSNMVKNLTSQMVEYGQVKRGELGIMGTELNSELAKAMKVDAQRGAFVSQVLPNSSAAKAGIKAGDVITSLNGKPISSFAALRAQVGTMPVGSKLTLGLLRDGKQVNVNLELQQSSQNQVDSSSIFNGIEGAEMSNKGKDQGVVVNNVKTGTPAAQIGLKKGDVIIGANQQAVKNIAELRKVLDSKPSVLALNIQRGDSTIYLLMQ

What was measured:
DegP = DegP (Escherichia coli, UniProt P0C0V0); format: biochemical; conditions: reporter 100 μM; no activator; 23 °C, 50 mM sodium phosphate pH 8, 100 mM NaCl
[1] = target: B2; assay: crystal structure
[2] = target: T1, DegP^S210A/Y444A (Escherichia coli), P0C0V0; assay: SEC; conditions: remark: other sources report otherwise
T1 chain: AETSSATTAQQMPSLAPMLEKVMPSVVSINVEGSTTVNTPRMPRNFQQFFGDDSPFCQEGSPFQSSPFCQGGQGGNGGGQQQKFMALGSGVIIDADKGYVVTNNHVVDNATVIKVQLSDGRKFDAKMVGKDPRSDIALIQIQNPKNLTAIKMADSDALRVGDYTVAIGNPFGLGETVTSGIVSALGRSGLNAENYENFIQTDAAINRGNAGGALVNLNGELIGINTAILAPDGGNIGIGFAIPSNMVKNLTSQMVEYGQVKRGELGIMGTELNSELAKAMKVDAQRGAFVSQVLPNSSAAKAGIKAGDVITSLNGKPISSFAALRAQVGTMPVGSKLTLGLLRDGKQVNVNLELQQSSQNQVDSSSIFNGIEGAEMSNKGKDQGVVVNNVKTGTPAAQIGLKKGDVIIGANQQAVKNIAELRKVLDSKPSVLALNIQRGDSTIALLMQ

[3] = target: T1, DegP^S210A/Y444A (Escherichia coli), …; assay: SEC; conditions: remark: other sources report otherwise
SEC = target: the molecule itself; assay: SEC
AUC = target: the molecule itself; assay: AUC

Chain of DegP (P0C0V0 27-474): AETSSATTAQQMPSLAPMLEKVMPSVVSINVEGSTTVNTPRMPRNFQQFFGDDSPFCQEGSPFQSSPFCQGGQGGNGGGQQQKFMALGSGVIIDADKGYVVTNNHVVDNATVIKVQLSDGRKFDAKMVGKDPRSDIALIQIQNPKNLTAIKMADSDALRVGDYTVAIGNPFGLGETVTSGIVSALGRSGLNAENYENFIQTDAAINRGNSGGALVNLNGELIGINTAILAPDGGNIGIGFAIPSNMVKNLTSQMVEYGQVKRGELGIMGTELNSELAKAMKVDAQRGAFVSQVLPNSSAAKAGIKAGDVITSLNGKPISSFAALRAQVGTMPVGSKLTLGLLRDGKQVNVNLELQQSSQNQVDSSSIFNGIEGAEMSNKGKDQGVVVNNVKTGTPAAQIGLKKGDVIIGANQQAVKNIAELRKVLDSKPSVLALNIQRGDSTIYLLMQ

Molecule: Abz-KASPVSLGY^NO2D [reporter peptide]
- rate of reporter peptide cleavage by DegP alone (DegP): 0.027 min^−1 DegP^−1

- binding result [1]: binds
Molecule: DNYRGYSLGNWVSAAKFESNFNTQATNRNTDGSTDYGILQI (peptide, UniProt P00698 36-76, looked up) [18-58 polypeptide (lysozyme residues 18-58 with the cysteines mutated to serines)]

- stoichiometry N [2]: 6
- stoichiometry N [3]: 6
B1: DegP^S210A/Y444A, P0C0V0 27-474 (enzyme)
chain: AETSSATTAQQMPSLAPMLEKVMPSVVSINVEGSTTVNTPRMPRNFQQFFGDDSPFCQEGSPFQSSPFCQGGQGGNGGGQQQKFMALGSGVIIDADKGYVVTNNHVVDNATVIKVQLSDGRKFDAKMVGKDPRSDIALIQIQNPKNLTAIKMADSDALRVGDYTVAIGNPFGLGETVTSGIVSALGRSGLNAENYENFIQTDAAINRGNAGGALVNLNGELIGINTAILAPDGGNIGIGFAIPSNMVKNLTSQMVEYGQVKRGELGIMGTELNSELAKAMKVDAQRGAFVSQVLPNSSAAKAGIKAGDVITSLNGKPISSFAALRAQVGTMPVGSKLTLGLLRDGKQVNVNLELQQSSQNQVDSSSIFNGIEGAEMSNKGKDQGVVVNNVKTGTPAAQIGLKKGDVIIGANQQAVKNIAELRKVLDSKPSVLALNIQRGDSTIALLMQ

Molecule: B2
- stoichiometry N (SEC): 6
- stoichiometry N (AUC): 18 and 24 and 30
